Reference: PMC2726290, “Decoding of Methylated Histone H3 Tail by the Pygo-BCL9 Wnt Signaling Complex” (Molecular Cell, 2008)
Residue numbers refer to the chain shown, from its start.

T1: hPHD-HD1 complex (hPygo1 PHD 333-402 with hBCL9 HD1) (human, UniProt Q9Y3Y4 333-402; O00512 177-205)
T1 construct: PHD finger of human Pygo1, amino acids 333-402; also called binary complex; human PHD-HD1 complex; source: E. coli BL21-CodonPlus(DE3)-RIL, coexpressed from a bicistronic vector, purified as a complex; not shown: GST, N-terminal, cleaved; MBP, N-terminal, cleaved
T1 sequence (looked up) 1: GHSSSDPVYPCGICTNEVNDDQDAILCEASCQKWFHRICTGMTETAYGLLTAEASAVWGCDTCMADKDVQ
T1 sequence (looked up) 2: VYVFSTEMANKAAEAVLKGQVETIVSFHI

T2: hPygo1 PHD finger E349A (human, UniProt Q9Y3Y4 333-402, E349A)
T2 construct: PHD finger of human Pygo1 with E349A; source: E. coli, purified; not shown: GST, N-terminal, cleaved
T2 sequence (looked up): T1 sequence (looked up) 1 with E17A

B1: H3K4me2 9-mer histone H3 tail peptide (peptide, UniProt P68431 2-10, looked up)
peptide: ARTKQTARK
modifications: dimethyl-lysine at K4
notes: histone H3 tail, 9-mer; the limits follow from the truncated form 'spanning R2-K9 (without A1)'; Only the first seven residues are modelled in the structure; also called 9-mer H3K4me2 peptide
B2: H3R2me2aK4me2 18-mer histone H3 tail peptide (peptide, UniProt P68431 2-19, looked up)
peptide: ARTKQTARKSTGGKAPRK
modifications: asymmetric dimethyl-arginine at R2 (R2me2a); dimethyl-lysine at K4
notes: histone H3 tail, 18-mer; Only the first seven residues are modelled in the structure; also called 18-mer histone H3 tail carrying both K4me2 and asymmetrically methylated R2 (R2me2a)

How the values were obtained:
[1] = molecular target: T1, hPHD-HD1 complex (hPygo1 PHD 333-402 …); assay: ITC; protein dialysed into 100 mM NaCl, 25 mM Tris-HCl (pH 8.0), 10 uM ZnCl2, 2 mM beta-mercaptoethanol; histone peptides with free PHD or PHD-HD1 complex; one-site model; conditions: both partners purified
[2] = molecular target: T2, hPygo1 PHD finger E349A; assay: as above; conditions: both partners purified

Binder	Kd [1] [µM]	Kd [2] [µM]
B1	11	–
ARTKQTARKSTGGKA (peptide, UniProt P68431 2-16, looked up, trimethyl-lysine at K4, histone H3 tail, 15-mer) [H3K4me3 15-mer histone H3 tail peptide]	–	22
B2	2.1	–
